Test results: publication PMC6009097, “Design and biological characterization of novel cell-penetrating peptides preferentially targeting cell nuclei and subnuclear regions” (Beilstein Journal of Organic Chemistry, 2018)
Marks after values point to notes of the source that are not given here. Where no end group is shown, it is not given here.

What was measured:
HeLa cells [1] = test: Cellular uptake, confocal fluorescence microscopy; format: cell-based; conditions: 1 μM CF-labeled peptide, 37 °C; for cellular uptake (microscopy) at 1 μM: 30 and 120 min; for intracellular distribution at 1 μM: 30 or 120 min
[2] = Circular dichroism spectroscopy (secondary structure); format: physicochemical; conditions: 10 mM phosphate buffer pH 7.0 with TFE (50%), peptide 20 µM
Experimental: First, we performed a structural analysis by diluting all peptides to a concentration of 20 μM in phosphate buffer (pH 7.0), with or without the presence of the secondary structure inducing solvent trifluoroethanol (TFE).
Figure 1 Circular dichroism spectra of the novel peptides solved in 10 mM phosphate buffer (pH 7) (A), or phosphate buffer with the addition of TFE (50%) (B). Peptide concentration was 20 µM. (C) Helical wheel projections of the peptides N50-sC18* and NrTP-sC18*, respectively.
All peptides were analyzed in 10 mM potassium phosphate buffer (pH 7.0) with or without the addition of TFE (1:1 dilution) using a peptide concentration of 20 µM. Peptides were measured in a 0.1 cm quartz cuvette with a sensitivity of 100 mdeg in the range from 260 to 180 nm in 0.5 nm intervals. The scanning mode was continuous and a scanning speed of 50 nm/min was chosen. The results of pure buffer were subtracted from the spectra of the peptides. The ratio between the molar ellipticity at 222 nm and 207 nm was used to confirm an α-helical structure of peptides.

HeLa cells [3] = test: Resazurin-based cell viability assay; conditions: 24 h; for concentration up to which no significant toxicity was observed: 37 °C, serum-free medium, resazurin read-out, n = 3 in triplicate
Experimental: (§1) In the next step, the cytotoxicity profiles of the novel peptide chimera were investigated. Therefore, we chose two different cancer cell lines, namely breast cancer MCF-7 and cervix carcinoma HeLa cells, which were exposed for 24 h to various concentrations of the peptides sC18*, N50, N50-sC18*, NrTP and NrTP-sC18* (Figure 2).
(§2) Figure 2 Cytotoxicity profiles of the peptides in MCF-7 and HeLa cells. Cells were incubated for 24 h with different concentrations of peptide solutions. Untreated cells served as negative control, cells treated with 70% ethanol as positive control. Values from the positive control were subtracted from all data, and the untreated cells were set to 100%; assays were performed with n = 3 in triplicate.
(§3) A total volume of 200 μL of cells (HeLa 40’000, MCF-7 50’000 cells per well) were seeded in 96-well plates and grown to 70–80% confluency. Afterwards, they were incubated with peptide or doxorubicin solutions (diluted in serum-free medium) in a total volume of 100 μL. In the wells that served as positive and negative controls, the medium was replaced by fresh medium without FBS. The plates were incubated for 24 h or 48 h at 37 °C. Afterwards, the positive control was treated with 100 μL of 70% EtOH for 10 min, and then all cells were washed with PBS. Cells were covered with 100 μL of a 10% resazurin solution in medium without FBS and incubated for 1–2 h at 37 °C. Afterwards, fluorescence was quantified by using a Tecan infinite M200 plate reader (excitation: 550 nm, emission: 595 nm).
To achieve comparably results, the positive control was subtracted from all data and the negative control was set to 100%, so that the results of the peptide-treated cells represent relative cell viability values in %. Experiments were done in triplicate.
Peptide solutions of 1, 5, 10,
25, 40, 55, 70, 85 and 100 µM were incubated with HeLa cells (24 h, 37 °C). Afterwards a resazurin-based cell
viability assay was performed according to the experimental part.
(1 picture or pasted object on this page, not shown here)

MCF-7 cells [4] = test: Cytotoxicity of doxorubicin co-incubated with peptides (resazurin viability assay); format: cell-based; conditions: MCF-7, peptide 10 μM + DOX 1 μg/mL, 48 h
Experimental: Fluorescence microscopic images after 30 min incubation in HeLa (A) and MCF-7 (B) cells with 10 μM CF-labeled peptides N50-sC18* or NrTP-sC18* co-incubated with 10 μg/mL doxorubicin at 37 °C, respectively. Cells treated with DOX alone served as negative control; Green: CF-labeled peptide; blue: Hoechst 33342 nuclear stain; red: doxorubicin; scale bar is 10 µm. (C) Cells were incubated for 48 h with DOX (1 µg/mL), or solutions out of peptides (10 µM) and DOX (1 µg/mL), or peptide solutions (10 µM) alone. Untreated cells served as negative control, cells treated for 10 min with 70% ethanol as positive control. Experiments were conducted in triplicate with n = 2.
Herein, the drug alone (1 μg/mL) or in presence of 10 μM solutions of the peptides sC18*, N50-sC18* and NrTP-sC18*, respectively, were incubated for 48 h with MCF-7 cells.
as §3
Experiments were done in triplicate.

HeLa cells [5] = test: Cellular uptake, confocal fluorescence microscopy; format: cell-based; conditions: 10 µM CF-labeled peptide, 30 min, 37 °C; for cellular uptake (microscopy): trypan blue quench
Experimental: (§4) Next, we analyzed the intracellular fate of the new peptide variants using confocal fluorescence microscopy. Thus, MCF-7 and HeLa cells were incubated with 10 µM peptide solutions at 37 °C and inspected after 30 min (Figure 3).
(§5) Figure 3 Cellular uptake in HeLa and MCF-7 cells. Cells were incubated for 30 min with 10 µM of CF-labeled peptide solutions. Green: CF-labeled peptide; blue: Hoechst 33342 nuclear stain; scale bar is 10 µm.
(§6) For microscopic analyses, a confocal laser scanning system (Nikon D-Eclipse C1) with an inverted microscope (Nikon Eclipse Ti) was used. Pictures were taken with a 60× oil immersion objective (N.A. 1.4, Plan APO VC; Nikon) using the software EZ-C1 3.91 from Nikon.
(§7) Cells were seeded in 350 μL medium in an 8-well ibidi plate (HeLa 45,000, MCF-7 70,000 cells per well) and were grown to 70–80% confluency. Then, the medium was removed and the cells were treated with the peptides and substances in various concentrations for the requested time. Cells were incubated at 4 °C or 37 °C and 10 min prior to the end of incubation 0.6 μL of Hoechst stain (bisbenzimide H33342, 1 mg/mL in H2O, sterile filtered) was added to each well to stain the cell nuclei. After removing the solutions, cells were quenched with 200 μL of 150 μM trypan blue solution (in acetate buffer) for 30 s. The stain was removed and the cells were washed twice with medium. After adding 300 μL of fresh medium, pictures were taken using a fluorescence confocal microscope. Images were edited in Image J 1.43m.

MCF-7 cells [6] = test: Cellular uptake, confocal fluorescence microscopy; format: cell-based; conditions: MCF-7, 10 µM CF-labeled peptide, 30 min; for cellular uptake (microscopy) / intracellular distribution: 37 °C, confocal fluorescence; for cellular uptake (microscopy): trypan blue quench
Experimental: as §4, §5, §6, §7

[7] = tested on: several different cell lines; conditions: cited from earlier work
Experimental: Within their studies, the authors used higher concentrations, longer incubation times and other cell lines, what could probably explain the different results obtained in our study. In fact, it is very likely that working with increased concentrations of the NrTP sequence could probably improve the cell-penetrating capability of this peptide. Also for the N50 sequence alone, the internalization ability in several different cell lines was already determined [[2 ...

MCF-7 cells [8] = test: Resazurin-based cell viability assay; conditions: 24 h, 37 °C, serum-free medium, resazurin read-out, n = 3 in triplicate
Experimental: as §1, §2
A total volume of 200 μL of cells (HeLa 40’000, MCF-7 50’000 cells per well) were seeded in 96-well plates and grown to 70–80% confluency. Afterwards, they were incubated with peptide or doxorubicin solutions (diluted in serum-free medium) in a total volume of 100 μL. In the wells that served as positive and negative controls, the medium was replaced by fresh medium without FBS. The plates were incubated for 24 h or 48 h at 37 °C. […] Afterwards, fluorescence was quantified by using a Tecan infinite M200 plate reader (excitation: 550 nm, emission: 595 nm). […]

HeLa cells [9] = test: Cellular uptake quantified by flow cytometry; format: cell-based; conditions: 10 µM peptide, 30 min, 37 °C, serum-free medium, 10,000 cells, triplicate
Experimental: (§8) Figure 4 Cellular uptake in MCF-7 and HeLa cells was quantified by flow cytometry. Cells were incubated with 10 µM peptide solutions for 30 min at 37 °C.
(§9) Cells were seeded in 24-well plates (HeLa 170,000, MCF-7 200,000 cells per well) and grown to 70–80% confluency. Then, cells were treated with 400 μL of peptide solutions dissolved in serum-free medium for the appropriate time at 4 °C or 37 °C. Afterwards, the cells were washed twice with PBS and detached with Trypsin-EDTA 1× in PBS without phenol red for 3–5 min followed by adding 800 μL of indicator-free medium. Cells were resuspended and 200 μL of the suspension were transferred to a 96-well plate for measuring the fluorescence in the Guava® easyCyte flow cytometer (Merck). In each sample, 10,000 cells were measured and each experiment was done in triplicate. Cells treated with medium only served as negative control and their fluorescent signal was subtracted from all other samples in each set of experiment.

MCF-7 cells [10] = test: Cellular uptake quantified by flow cytometry; format: cell-based; conditions: MCF-7, 10 µM peptide, 30 min, 37 °C, serum-free medium, 10,000 cells, triplicate
Experimental: as §8, §9

Substance	cellular uptake (microscopy) at 1 μM (HeLa cells [1])	secondary structure (CD) [2]	concentration up to which no significant toxicity was observed (HeLa cells [3]; HeLa cells) [µM]	effect of the peptide on the toxic effect / efficacy of DOX (MCF-7 cells [4])	cellular uptake (microscopy) (HeLa cells [5])	cellular uptake (microscopy) (MCF-7 cells [6])	internalization ability / uptake [7]	intracellular distribution at 1 μM (HeLa cells [1])	R-value (ratio between the molar ellipticity at 222 nm and 207 nm) ([2]; CD)	concentration up to which no toxic effects were observed (MCF-7 cells [8]) [µM]	cellular uptake (flow cytometry) (HeLa cells [9])	cellular uptake (flow cytometry) (MCF-7 cells [10])	number of viable cells after co-treatment with DOX (MCF-7 cells [4]; triplicate with n = 2) [%]	intracellular distribution (HeLa cells [5])	intracellular distribution at 4 °C (MCF-7 cells [6])	intracellular distribution (MCF-7 cells [6])	IC50 (HeLa cells [3]) [µM]	effect on cell viability at 50 µM (HeLa cells [3]; HeLa cells, 50 µM)	effect on cell viability at higher concentrations (HeLa cells [3]; HeLa cells, concentrations above 50 µM)
GLRKRLRKFRNK [sC18*, shortened version of the cell-penetrating peptide sC18, lacking its four C-terminal amino acids]	no uptake at all	α-helical character	≤ 50	could not enhance the efficacy of DOX	only small dots were detectable	only small dots were detectable													
VQRKRQKLMP [N50, reference compound]	no uptake at all	random coil structure	≤ 50		not noticeable present	not noticeable present	very low												
VQRKRQKLMPGLRKRLRKFRNK [N50-sC18*]		formed α-helices	≤ 50	significantly improved	entered the cells extremely efficiently compared to sC18* alone	entered the cells extremely efficiently compared to sC18* alone		diffusely distributed within the cytosol and the nuclei of HeLa cells, and after 120 min it mainly accumulated within the nuclei	0.83	≤ 100	extremely high uptake	extremely high uptake	30	distributed within the whole cell cytosol, and accumulated particularly around the nucleus	mainly detectable within the nuclei	distributed within the whole cell cytosol, and accumulated particularly around the nucleus			
YKQCHKKGGKKGSGGLRKRLRKFRNK-NH2 [NrTP-sC18*]			≤ 50		entered the cells extremely efficiently compared to sC18* alone	entered the cells extremely efficiently compared to sC18* alone		accumulates in endosomes		≤ 100	extremely high uptake	extremely high uptake		strong accumulation within the nucleoli	evenly distributed throughout the whole cell, including strong accumulation in the nuclei	strong accumulation within the nucleoli	53.7 ± 4.79	seemed to affect cell viability	all cells were dead
